Source: ChEMBL document CHEMBL2074562, “Substrate specificity of the rat liver Na(+)-bile salt cotransporter in Xenopus laevis oocytes and in CHO cells” (Am J Physiol, 1998)

Legend:
Type in all cases: functional, cell-based
[1] = substrate: C[C@H](CCC(=O)NCC(=O)O)[C@H]1CC[C@H]2[C@@H]3[C@H](O)C[C@@H]4C[C@H](O)CC[C@]4(C)[C@H]3C[C@H](O)[C@]12C; experiment: (§1) TP_TRANSPORTER: uptake in Ntcp-expressing CHO cells
[2] = substrate: C[C@]12CC[C@@H]3c4ccc(OS(=O)(=O)O)cc4CC[C@H]3[C@@H]1CCC2=O; experiment: as §1
[3] = substrate: C[C@H](CCC(=O)NCCS(=O)(=O)O)[C@H]1CC[C@H]2[C@@H]3[C@H](O)C[C@@H]4C[C@H](O)CC[C@]4(C)[C@H]3CC[C@]12C; experiment: as §1

B1: Hepatic sodium/bile acid cotransporter (Rattus norvegicus) (protein)
chain: MEVHNVSAPFNFSLPPGFGHRATDKALSIILVLMLLLIMLSLGCTMEFSKIKAHLWKPKGVIVALVAQFGIMPLAAFLLGKIFHLSNIEALAILICGCSPGGNLSNLFTLAMKGDMNLSIVMTTCSSFSALGMMPLLLYVYSKGIYDGDLKDKVPYKGIMISLVIVLIPCTIGIVLKSKRPHYVPYILKGGMIITFLLSVAVTALSVINVGNSIMFVMTPHLLATSSLMPFSGFLMGYILSALFQLNPSCRRTISMETGFQNIQLCSTILNVTFPPEVIGPLFFFPLLYMIFQLAEGLLIIIIFRCYEKIKPPKDQTKITYKAAATEDATPAALEKGTHNGNIPPLQPGPSPNGLNSGQMAN
Km [1]: 27 µM
Km [2]: 27 µM
Km [3]: 5 µM
